{"source": "patent US7410949", "about": "(Hoffmann-La Roche, dated 2008)", "binders": {"B1": {"name": "H-Ile-Lys-Pqa-Arg-His-Tyr-Leu-Asn-Leu-Ala-Thr-Arg-Gln-Arg-Tyr-NH2 (peptide)", "peptide": "H-IK[Pqa]RHYLNLATRQRY-NH2", "SMILES": "CC[C@H](C)[C@H](N)C(=O)N[C@@H](CCCCN)C(=O)N1CCN(c2ccc3ncn(CC(=O)N[C@@H](CCCNC(=N)N)C(=O)N[C@@H](Cc4c[nH]cn4)C(=O)N[C@@H](Cc4ccc(O)cc4)C(=O)N[C@@H](CC(C)C)C(=O)N[C@@H](CC(N)=O)C(=O)N[C@@H](CC(C)C)C(=O)N[C@@H](C)C(=O)N[C@H](C(=O)N[C@@H](CCCNC(=N)N)C(=O)N[C@@H](CCC(N)=O)C(=O)N[C@@H](CCCNC(=N)N)C(=O)N[C@@H](Cc4ccc(O)cc4)C(N)=O)[C@@H](C)O)c(=O)c3c2)CC1"}, "B2": {"name": "H-Ile-Ala-Pqa-Arg-His-Tyr-Leu-Asn-Leu-Val-Thr-Arg-Gln-Arg-Tyr-NH2 (peptide)", "peptide": "IARHYLNLVTRQRY", "modifications": "Pqa moiety between the two parts; C-terminal amide"}, "B3": {"name": "Ac-Ile-Nle-Pqa-Arg-His-Tic-Leu-Asn-Leu-Val-Thr-Arg-Gln-Arg-Tyr-NH2 (peptide)", "peptide": "Ac-I[Nle][Pqa]RH[Tic]LNLVTRQRY-NH2", "SMILES": "CCCC[C@H](NC(=O)[C@@H](NC(C)=O)[C@@H](C)CC)C(=O)N1CCN(c2ccc3ncn(CC(=O)N[C@@H](CCCNC(=N)N)C(=O)N[C@@H](Cc4c[nH]cn4)C(=O)N4Cc5ccccc5C[C@H]4C(=O)N[C@@H](CC(C)C)C(=O)N[C@@H](CC(N)=O)C(=O)N[C@@H](CC(C)C)C(=O)N[C@H](C(=O)N[C@H](C(=O)N[C@@H](CCCNC(=N)N)C(=O)N[C@@H](CCC(N)=O)C(=O)N[C@@H](CCCNC(=N)N)C(=O)N[C@@H](Cc4ccc(O)cc4)C(N)=O)[C@@H](C)O)C(C)C)c(=O)c3c2)CC1"}, "B4": {"name": "H-Ile-Lys-Pqa-Arg-His-Tyr-Leu-Asn-Leu-(D)Val-Thr-Arg-Gln-Arg-Tyr-NH2 (peptide)", "peptide": "IKRHYLNLVTRQRY", "modifications": "(D)Val at PYY position 31 (residue 7 of the second part); Pqa moiety between the two parts; C-terminal amide"}, "B5": {"name": "Ac-Ile-Nle-Pqa-(2,3,4,5,6 Penta fluoro Phe)-His Tyr-Leu-Asn-Leu-Val-Thr-Arg-Gln-Arg-Tyr-NH2 (peptide)", "peptide": "Ac-I[Nle][Pqa][Phe(F5)]HYLNLVTRQRY-NH2", "SMILES": "CCCC[C@H](NC(=O)[C@@H](NC(C)=O)[C@@H](C)CC)C(=O)N1CCN(c2ccc3ncn(CC(=O)N[C@@H](Cc4c(F)c(F)c(F)c(F)c4F)C(=O)N[C@@H](Cc4c[nH]cn4)C(=O)N[C@@H](Cc4ccc(O)cc4)C(=O)N[C@@H](CC(C)C)C(=O)N[C@@H](CC(N)=O)C(=O)N[C@@H](CC(C)C)C(=O)N[C@H](C(=O)N[C@H](C(=O)N[C@@H](CCCNC(=N)N)C(=O)N[C@@H](CCC(N)=O)C(=O)N[C@@H](CCCNC(=N)N)C(=O)N[C@@H](Cc4ccc(O)cc4)C(N)=O)[C@@H](C)O)C(C)C)c(=O)c3c2)CC1"}, "B6": {"name": "H-Ile-Lys-Pqa-Arg-His-Tyr-Leu-Asn-Leu-Val-Thr-(D)Arg-Gln-Arg-Tyr-NH2 (peptide)", "peptide": "IKRHYLNLVTRQRY", "modifications": "(D)Arg at PYY position 33 (residue 9 of the second part); Pqa moiety between the two parts; C-terminal amide"}, "B7": {"name": "Cyclo Lys28-Asp32 Ac-Ile-Nle-Pqa-Arg-His-Tyr-Lys-Asn-Leu-Val-Asp-Arg-Gln-Arg-Tyr-NH2 (peptide)", "peptide": "Ac-I[Nle][Pqa]RHYKNLVDRQRY-NH2", "modifications": "lactam 7-11"}, "B8": {"name": "H-Ile-Lys-Pqa-Arg-Ala-Tyr-Leu-Asn-Leu-Val-Thr-Arg-Gln-Arg-Tyr-NH2 (peptide)", "peptide": "H-IK[Pqa]RAYLNLVTRQRY-NH2", "SMILES": "CC[C@H](C)[C@H](N)C(=O)N[C@@H](CCCCN)C(=O)N1CCN(c2ccc3ncn(CC(=O)N[C@@H](CCCNC(=N)N)C(=O)N[C@@H](C)C(=O)N[C@@H](Cc4ccc(O)cc4)C(=O)N[C@@H](CC(C)C)C(=O)N[C@@H](CC(N)=O)C(=O)N[C@@H](CC(C)C)C(=O)N[C@H](C(=O)N[C@H](C(=O)N[C@@H](CCCNC(=N)N)C(=O)N[C@@H](CCC(N)=O)C(=O)N[C@@H](CCCNC(=N)N)C(=O)N[C@@H](Cc4ccc(O)cc4)C(N)=O)[C@@H](C)O)C(C)C)c(=O)c3c2)CC1"}, "B9": {"name": "H-Ile-Lys-Pqa-Arg-His-Tyr-Leu-Asn-Leu-Val-Thr-Arg-Ala-Arg-Tyr-NH2 (peptide)", "peptide": "H-IK[Pqa]RHYLNLVTRARY-NH2", "SMILES": "CC[C@H](C)[C@H](N)C(=O)N[C@@H](CCCCN)C(=O)N1CCN(c2ccc3ncn(CC(=O)N[C@@H](CCCNC(=N)N)C(=O)N[C@@H](Cc4c[nH]cn4)C(=O)N[C@@H](Cc4ccc(O)cc4)C(=O)N[C@@H](CC(C)C)C(=O)N[C@@H](CC(N)=O)C(=O)N[C@@H](CC(C)C)C(=O)N[C@H](C(=O)N[C@H](C(=O)N[C@@H](CCCNC(=N)N)C(=O)N[C@@H](C)C(=O)N[C@@H](CCCNC(=N)N)C(=O)N[C@@H](Cc4ccc(O)cc4)C(N)=O)[C@@H](C)O)C(C)C)c(=O)c3c2)CC1"}, "B10": {"name": "H-Ile-Lys-Gly-Cms-Arg-His-Tyr-Leu-Asn-Leu-Val-Thr-Arg-Gln-Arg-Tyr-NH2 (peptide)", "peptide": "IKGRHYLNLVTRQRY", "modifications": "Cms moiety between the two parts; C-terminal amide"}, "B11": {"name": "H-Ile-Lys-Pqa-Arg-His-Tyr-Leu-Asn-Leu-Val-Thr-Arg-Gln-(NMe)Arg-Tyr-NH2 (peptide)", "peptide": "IKRHYLNLVTRQRY", "modifications": "N-methyl Arg at PYY position 35 (residue 11 of the second part); Pqa moiety between the two parts; C-terminal amide"}}, "note": "*1 amine or outer side, *2 acyl side, *3 side chain or, on linkers, in order; H or OH if unused. Bridges are numbered along the chain shown (N, C = ends). [ ]: non-standard residue; d: D form. Pqa = N-piperazin-1-yl-4(3H)-quinazolinone-3-acetic acid, O=C(Cn1cnc2ccc(N3CCN([*:1])CC3)cc2c1=O)[*:2]; Phe(F5) = N[C@@H](Cc1c(F)c(F)c(F)c(F)c1F)C(=O)O; Tic = O=C(O)[C@@H]1Cc2ccccc2CN1; Nle = CCCC[C@H](N)C(=O)O", "data": [{"molecular_target": "Y4R", "experiment": "cell-based or functional assay", "units": {"Y4R EC50(nM) FLIPR": "nM"}, "values": [{"binder": "B1", "Y4R EC50(nM) FLIPR": "> 5000"}, {"binder": "B2", "Y4R EC50(nM) FLIPR": "> 5000"}, {"binder": "B3", "Y4R EC50(nM) FLIPR": "> 5000"}, {"binder": "B4", "Y4R EC50(nM) FLIPR": "> 5000"}, {"binder": "B5", "Y4R EC50(nM) FLIPR": "> 5000"}, {"binder": "B6", "Y4R EC50(nM) FLIPR": "> 5000"}, {"binder": "B7", "Y4R EC50(nM) FLIPR": "> 5000"}, {"binder": "B8", "Y4R EC50(nM) FLIPR": "> 5000"}, {"binder": "B9", "Y4R EC50(nM) FLIPR": "> 5000"}]}, {"molecular_target": "T1, human NPY2 receptor (human, UniProt P49146 1-381)", "T1 sequence (looked up)": "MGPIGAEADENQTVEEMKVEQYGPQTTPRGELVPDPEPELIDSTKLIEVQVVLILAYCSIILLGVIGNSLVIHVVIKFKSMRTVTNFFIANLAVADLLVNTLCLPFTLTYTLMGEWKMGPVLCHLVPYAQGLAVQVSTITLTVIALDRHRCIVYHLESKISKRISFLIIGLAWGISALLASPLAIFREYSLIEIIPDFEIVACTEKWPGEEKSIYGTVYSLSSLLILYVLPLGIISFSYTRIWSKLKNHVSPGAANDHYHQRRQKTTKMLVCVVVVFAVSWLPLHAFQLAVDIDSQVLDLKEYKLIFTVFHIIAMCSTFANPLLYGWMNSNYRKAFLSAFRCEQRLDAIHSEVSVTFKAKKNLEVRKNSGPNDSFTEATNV", "experiment": "cell-based or functional assay", "units": {"Y2R EC50(nM) FLIPR": "nM", "Y2R IC50(nM) cAMP": "nM"}, "values": [{"binder": "B10", "Y2R EC50(nM) FLIPR": 4.16, "Y2R IC50(nM) cAMP": 0.085}, {"binder": "B11", "Y2R EC50(nM) FLIPR": 18.9, "Y2R IC50(nM) cAMP": 0.417}]}, {"molecular_target": "Y1R", "sequence (P25929 whole entry)": "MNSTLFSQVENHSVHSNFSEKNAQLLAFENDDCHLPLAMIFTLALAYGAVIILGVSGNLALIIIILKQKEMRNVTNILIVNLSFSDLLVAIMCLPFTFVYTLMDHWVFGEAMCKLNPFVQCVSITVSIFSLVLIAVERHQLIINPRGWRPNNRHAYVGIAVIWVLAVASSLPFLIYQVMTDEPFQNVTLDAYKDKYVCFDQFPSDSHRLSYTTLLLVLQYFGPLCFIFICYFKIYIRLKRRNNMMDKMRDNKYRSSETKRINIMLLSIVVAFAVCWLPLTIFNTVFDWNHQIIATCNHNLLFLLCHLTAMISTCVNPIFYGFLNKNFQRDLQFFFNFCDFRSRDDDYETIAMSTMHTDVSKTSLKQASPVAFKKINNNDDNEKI", "experiment": "cell-based or functional assay", "units": {"Y1R EC50(nM) FLIPR": "nM"}, "values": [{"binder": "B1", "Y1R EC50(nM) FLIPR": "> 5000"}, {"binder": "B2", "Y1R EC50(nM) FLIPR": 1000}, {"binder": "B3", "Y1R EC50(nM) FLIPR": "> 5000"}, {"binder": "B4", "Y1R EC50(nM) FLIPR": "> 5000"}, {"binder": "B5", "Y1R EC50(nM) FLIPR": "> 5000"}, {"binder": "B6", "Y1R EC50(nM) FLIPR": "> 5000"}, {"binder": "B7", "Y1R EC50(nM) FLIPR": "> 5000"}, {"binder": "B8", "Y1R EC50(nM) FLIPR": "> 5000"}, {"binder": "B9", "Y1R EC50(nM) FLIPR": "> 5000"}]}]}
